Measured values taken from the DeepSol protein solubility set.

Assay: soluble on expression in E. coli; label from the status in PepcDB or PDB records

| Sequence | soluble on expression in E. coli |
| --- | --- |
| MEAWKKKKGLFKGARYQCTLEPIEREVLGNLAANISEVLISRAQSAPKDELAELTGMGGGHTEAPEDPGLARLLPDFEMQGDEEFDGDNSLLRSLHENDITRAKLANLQTIGQALGPDGSVFVTVTEEEAQAWVAGLNDIRLYLASSEVQDTEDRDALVEWLAFAQESLLTAMMGSLD | not soluble |
| PVAVYTTHDPQALKITGNRLSCEWLRIPPGTNLSKSAHEGERPEFFKLFKDGVEIPPEKMPSQLSAAGIEVNDCELDIVSADGRIRHVLGNARPLRDEN | not soluble |
| SLTGAVDKLTLIHYNDVYNIDANSKSEPIGGAARFCTAVRSFSHLNPLVLFSGDAFSPSMLSTFTKGEQMIPVLNTVGTHCAVFGNHDFDHGLDILNEWVEKTNFPWLMSNVVDNETGRPLGGGKITHIMHHNEVKVGLIGLVEKEWLDTLPTIDPNEVTYIDFIKAGNQLADELHNQGCDIIIALTHMRTPNDIELAKHSGHIDLILGGHDHVYEILNIDDTHVIKSGTDFRQFSKIGISLNRNQNGKININVEKVDVNSTKYSEDSELKNELKKYSETIESKMDEVLGTFAVELDGRFSAIRTSETNLGNWICDVALAATGADCVIINSGTFRSDQIHPAGPFTMRDLINIIPMQDPLIVLEVTGKILHQALENSVSTYPKLEGRFPQIAGMSFVFDPTKKAGERVEPKLIRLGDEWLNLEQTYTLCVKSYIYGGCDGYNMFKECRVLMDDDAAPELGLAIQNHFKAIDVRLGK | soluble |
| MGSDKIHHHHHHMETRRDERIGQLLQALKRSDKLHLKEAATLLGVSEMTIRRDLNHKSAPVVLLGGYIVLEPRSASHYLLSDQKSRLVEEKRRAAQLAAGLVQAHQTVFIDCGTTTPWIIEAIDNDLPFTAVCYSLNTFLALQDKPHCRAILSGGEFHASNAIFKPLDFHETLNNICPDIAFYSAAGVHTSKGATCFNLEELPVKHWAMTMAQCHVLVVDHSKFGKVRPARMGELSRFDTIISDRRPDEAFVAYAKAQQITLMY | not soluble |
| VHSELTAAVGWNVWNELFTCSDDQTIHKWNMLGEPEQKVSTLDAYFTDMHWYPVSSKKTQAGGTDVFAVACTDGSVKILSRTGRVEKSIEGHKGACISLRWSYDGTALATAGEDGSVKIWSRNGMLRSTLAQADSPVYSIVWAYDCDQLCYCTGSNVVIKSLSSNAKQNAWKAHDGVVLKVDWSPINHLIITGGEDCKYKVWDSFGRLLFQSGLFDYPVTSVAWAPSGELFAVGGFNTLQLCDRMGWAYSKIHLNDTGSIMTLSWTADSTQLA | not soluble |
| MSLSEVDIAKADPAAASHPLLLNGDATVAQKNPGSVAENNLCSQYEEKVRPCIDLIDSLRALGVEQDLALPAIAVIGDQSSGKSSVLEALSGVALPRGSGIVTRCPLVLKLKKLVNEDKWRGKVSYQDYEIEISDASEVEKEINKAQNAIAGEGMGISHELITLEISSRDVPDLTLIDLPGITRVAVGNQPADIGYKIKTLIKKYIQRQETISLVVVPSNVDIATTEALSMAQEVDPEGDRTIGILTKPDLVDKGTEDKVVDVVRNLVFHLKKGYMIVKCRGQQEIQDQLSLSEALQREKIFFENHPYFRDLLEEGKATVPCLAEKLTSELITHICKSLPLLENQIKETHQRITEELQKYGEGHHHHHH | not soluble |
| MAKSTVRYVCSACGAVSLKYQGRCFECQSWGTLVETHLEEPDAKVRKKRPAGSMPEVQNLDDDAPSGFHRTLTGIGELDRVLGGGLMEASAILVGGEPGIGKSTLMLQLVPRLAGKKVLYVAGEESPNQIRERARRLSIKAPNLRLVSEVALERILDAIANEQPEMVIVDSIQTVYSSDYQSSAGTITQIRECAASLIRAAKEQNFILLIIGHITKEGSLAGPKALEHMVDTVVQFEGENYQRYRIIRSVKNRFGPTNEIGVFKMGEEGLTEVSNPSEFFISDRRTDVPGTAVLAGIEGSRALMVEVQALVSRTGYSMPQRISTGFDLKRIAIILAVLEKRLQFQTAGQDVFVKIAGGLKLVEPAADLAIAAAVASGLQDKPCNPTACCCGEIGLSGELRAISDGERRIREAVHLGFTSIVLPESNTRELKPSLKKLPIRIAGCRTLHEALEAMGV | not soluble |
| MLRVLVGAVLPAMLLAAPPPINKLALFPDKSAWCEAKNITQIVGHSGCEAKSIQNRACLGQCFSYSVPNTFPQSTESLVHCDSCMPAQSMWEIVTLECPGHEEVPRVDKLVEKILHCSCQACGKEPSHEGLSVYVQGEDGPGSQPGTHPHPHPHPHPGGQTPEPEDPPGAPHTEEEGAED | soluble |
| MTLCAMYNISMAGSHPTTICVVMDRFLESFSELYDIIDENDTDVMMDFISRFARTDEIMPEDKTVGFVVVNADKKLMSVSFSDIDENMKKVIKATAEKFKNKGFKVETDM | soluble |
| DESATSYANSAIAIELDGDQYVARIKDPLADHAKYTEAFHAVGLDIDLRLVPASPTAVGKFLSVRWSKSSGAGPARSASGGSLPTLKFTPENCGEPNQAGCELTMRVPADYTGNMSLSLGRRAEPGEEYKNPDWATAPGEMFGGVQLQDGRPVDAMLAEARRRDLTVEFSRIRPDAETGALSFEPLSADQVRGDWTVWHAWQVKAGVIRLLVTPERLPENPFEKGARPPS | not soluble |
| GPGSMSSSGPLAPPISWAQRPEYVLITIPLQDTTGVSVEIKDEGRELHFACSSPEHKQYACTIHFYGVISSEESQHVVRPRQIELKLRKKFSKSLEDANDDEVEWPRLTKEKSKYPNITIDWSKWKDENDDECAADDLGNFGLSGGDAMDGQYSEMLSQLMQAQGQKDAEESADLPPGTIPGFGSARGQEATHGASAETGDDDGDMPPLEEDT | soluble |
| MKTEEMKFINESEFKKLKHYFEQKNTTSSLVLLVALTTGGRFSEIAKLKREDLDIKNNKIHLRGTKTETSDRIISIDTVTMKRIQSFIDSRPTNISGYIFTVDGKTITNAAVNKVLRKACANLNIKEITIHSLRHSFCSILIHHGFSILYISKHLGHSNPATTQSIYSHLLEHHHHHH | soluble |
| SLLLLQSILITKIMVIQLILFFEYALASGFEDKNILKEGKMMFDTLLKQFLEIDKVISLLYKDFVDNYIDFKNLEIVKIKKENEIENKLKSLLKSENIDYALVVAPEDEDILYNLTKIIESYPVKNLGCSSEAIKIAGNKYLTYLAIKDAVKTPKTFPPKKYVVKKIDSCGGKFNLFDENFLIQEFIDGENLSVSLIVGKKIHPLSLNRQYIDKRGFVGGEVNINHKLKDKIFNEAIKAVKCINGLNGYVGVDVIVNNDGIYIIEINPRITTTIYGLKTNPSLAELLIKNANNEELKFKVKGEKFTIDK | not soluble |
| GSQGHDTVQPNFQQDKFLGRWYSAGLASNSSWFREKKAVLYMAKTVVAPSTEGGLNLTSTFLRKNQCETKIMVLQPAGAPGHYTYSSPHSGSIHSVSVVEANYDEYALLFSRGTKGPGQDFRMATLYSRTQTLKDELKEKFTTFSKAQGLTEEDIVFLPQPDKCIQE | soluble |
| MNIFSKPDPKELERANKRELRKTNRDLESDRRQMDRREKELEQEIKKLAAKGHNDAARHLAKQLVQLRNQKTKSIGMSARISGVQAQNSHMQSMAKMGSAMGTTVKTMKAMNAQMPLEKVAANMREFQMAQEKMGLTEEMMNDTLDSILDAPGDADEQDAIVNQVLDEIGIEMNSKLANVPALPTKVSSTAPADFDDLEAQLARLRS | not soluble |
| APPSSFSAAKQQAVKIYQDHPISFYCGCDIEWQGKKGIPNLETCGYQVRKQQTRASRIEWEAVVPAWQFGHHRQCWQKGGRKNCSKNDQQFRLMEADLHNLTPAIGEVNGDRSNFNFSQWNGVDGVSYGRCEMQVNFKQRKVMPPDRARGSIARTYLYMSQEYGFQLSKQQQQLMQAWNKSYPVDEWECTRDDRIAKIQGNHNPFVQQSCQTQ | soluble |
| MASPENVILVHEISKLKTKEELWNPYEWYQFMRDNHPVHYDDEQDVWNVFLYDDVNRVLSDYSLFSSRRERRQFAIPPLETRININSTDPPEHRNVRSIVSKAFTPRSLEQWKPRIQSIANELVKDIENCSEVDIVEQFAAPLPVTVISDLLGVPTTDRKKIKAWSDILFMPYSKEKFNDLDAEKGIALNEFKAYLLPIVQEKRYHLTDDIISDLIRAEYEGERLTDEEIVTFSLGLLAAGNETTTNLIINSFYCFLVDSPATYKEVREKPKLISKAVEEVLRYRFPVTLARRITEDTNIFGPLMKKDQMVVAWVSAANLDEKKFSQASKFNIHRIGNEKHLTFGKGPHFCLGAPLARLEAEIALTTFINAFEKIALSPSFNIEQCILENEQTLKFLPIRLKPQ | not soluble |
| MALNGAEVDDFSWEPPTEAETKVLQARRERQDRISRLMGDYLLRGYRMLGETCADCGTILLQDKQRKIYCVACQELDSDVDKDNPALNAQAALSQAREHQLASASELPLGSRPAPQPPVPRPEHCEGAAAGLKAAQGPPAPAVPPNTDVMACTQTALLQKLTWASAELGSSTSLETSIQLCGLIRACAEALRSLQQLQHLEHHHHHH | not soluble |
| DQPGHYVGTDPNLGALSAFLAGETEEVPDANEIMPVLWDMVTTGVAQGESARAVRTAFVSNPSAALTGLSESLVPAEKQPGRVVESGLVRAKFTASNDESGSSHHRAPWIAVLELLGSLDAMTDQSGKPIELETDAPAPAGKKLSEGVVAKRALLAEIKELAGENAVAIVKTARDTTLDTACIDQSTVAIAGMAKAQQEALLEMFFSRSKIVPGLIMDDGNRLLAVFETFNKRVELNELLASEGLIKSAVTLLRTLRSTDKNLYSLARIRFDKLDGVDTNAPENMWSLTPVVSLVLALAARMHAHGFISSNKTLDSATPGWAKLADIVPDLVTGDLIAADAIILAMKKPGIA | not soluble |
| MVIIMQFYKEENFKEMHGLRVPEDWEVVRIGDFIKYIKGKKPAVMVDEELEGYYPYLSTEYLRDGIASKFVKITNKEIIVNENDILLLWDGSNAGEIFLGKKGILSSTMVKLEQKNKIMDDLYLFYSLKLKESFLKSQTKGTGIPHVDKKIFENIKIPLPPLEEQKQIAKILSDFDNLIGTINKQIEVLNKAKKGMMKKLFTKGVFEHKSFKKSEIGEIPEDWEVVKLKEVVDIQSGKYFKYSEFCENGVKCLKIDNVGFGKIFWETVSFLPEDYLNKYPQLVLKSGDIVLALNRPIIGGKIKIGILKDIDEPAILYQRVGRFIFKSEKIDKQFLFYLLMSEYFKKELSKLLIGTDQPYIRTPVLLNIKIPLPHLEEQKAMAERLKSIDNLIEIKRKEKEQIEKAKKKIMNLLLTGKIRVKNLNF | soluble |
| MLLCAGRNETLKKAVPIGVGLIESAINLTRMCLKNPDTESLIFIGSAGSYSPEMELLSVFESVCGYQIEESFSHLNSYTPLDNFIHIETEEQALFERVRVNSSNYIHTSEMFAKKMVQKGVLLENMEFFSVLSVAKAFSLKAKGIFCVSNYVGLNAYQEFKENHAKVKQILENIIDSLII | soluble |
| MAHHHHHHMNDDNTLALLYEGINLIFDKWTILRLAVTNNWGGINSEDKKKKLIEYVHNFVTNNNAKNKLCDYLRDEMSVLFNVDIEDHSDIEIADLILDLYQNLKKKNYDILEKIKNIQIYDISCSQEKNLIQNYEQGDEENMEDEYSSSNYSEYSNEESLDKE | soluble |
| MGSDKIHHHHHHMSSLGLIRNLPRSRFVPLVVLHDTDGPVADLFRREGIDFVAAPVLNRLARAAPRNGAAVVNVMRTLPALVRFLRASNASIVHTNDGRTHLIWGLAARVAGAKHLWHHRGDATSFGLRRVAPWLPNRLVAVSKFASPRPGIFSAASKCSVVHSPFDVTKMAGFEREEARNNVLAAIRCAPETKLLGYVGTLVDRKRPILFVEAVAALKRLSPETKVVGLFFGNALNGLDEAAKSRAEALGVADCIHFMGFRYPGEPWIAGLDALLVTAVNEPLGRTLVEAMLLGTPVVAADSGGNPEVVEDGRTGMLVRADDPDEFARACLKLFSDAALRDRIVETARNEVRARFSFERHVHAITSVYEELTGGMAAMQRSARAG | not soluble |
| MAHHHHHHMGTLEAQTQGPGSMNDYKLFRCIQCGFEYDEALGWPEDGIAAGTRWDDIPDDWSCPDCGAAKSDFEMVEVARS | soluble |
